Sequences and labels used below:
B1: LINE1-full (parent)
chain: UACGUAGGUGGUUUUCCCCUGAUAGUGCUAAGGGGGCCUGGAAGUUUGGACUGGGCAGAGCUCAACACAGCGUGGCAAAGUGGCUGUGGCUAGACUGCCUCUCUGGAUUCCUCGUCACUCAGCAGGGCAUCUCUGAGAGAAAUGCC

In this data set the parent is B1. Put plainly: self-cleavage, relative activity (ratio to wild type); higher = more cleavage; in vitro, sequencing; the parent is a self-cleaving ribozyme.
Take UACGUAGGUGGUUUUCCCCUGAUAGUGCUAAGGGGGCCUGGAAGUUUGGUCUGGGCAGAGCUCAACACAGCGUGGCAACGUGGCUGUGGCUAGACUGCCUCUCUGGAUUCCUCGUCACUCAGCAGGGCAUCUCUGAGAGAAAUGCC [A50U A79C]: the self-cleavage came out at 1.3. On to UACGUAGGUGGUUUUCCCCUGAUAGUGCUAAGGGGGCCUGGAAGUUUGGUCUGGGCAGAGCUCAACACAGCGUGGCAAGGUGGCUGUGGCUAGACUGCCUCUCUGGAUUCCUCGUCACUCAGCAGGGCAUCUCUGAGAGAAAUGCC [A50U A79G], for which the self-cleavage was 1.27. As to UACGUAGGUGGUUUUCCCCUGAUAGUGCUAAGGGGGCCUGGAAGUUUGGUCUGGGCAGAGCUCAACACAGCGUGGCAAAGUGGCUGUGGCUAGUCUGCCUCUCUGGAUUCCUCGUCACUCAGCAGGGCAUCUCUGAGAGAAAUGCC [A50U A94U], the self-cleavage worked out at 0.27. In the case of UACGUAGGUGGUUUUCCCCUGAUAGUGCUAAGGGGGCCUGGAAGUUUGGGCUGGGCAGAGCUCAACACAGCGUGGCAAAGUGGCUGUGGCUAGACUGCCUCUCUGGAUUCCUCGUCACUCAGCAGGGCAUCUCUGAGAGAAAUACC [A50G G144A], the self-cleavage came out at 1.46. Turning to UACGUAGGUGGUUUUCCCCUGAUAGUGCUAAGGGGGCCUGGAAGUUUGGGCUGGGCAGAGCUCAACACAGCGUGGCAAAGUGGCUGUGGCUAGACUGCCUCUCUGGAUUCCUCGUCACUCAGCAGGGCAUCUCUGAGAGAAAUCCC [A50G G144C], the self-cleavage is 0.83. In the case of UACGUAGGUGGUUUUCCCCUGAUAGUGCUAAGGGGGCCUGGAAGUUUGGGCUGGGCAGAGCUCAACACAGCGUGGCAAAGUGGCUGUGGCUAGACUGCCUCUCUGGAUUCCUCGUCACUCAGCAGGGCAUCUCUGAGAGAAAUUCC [A50G G144U] it was 0.25; in that of UACGUAGGUGGUUUUCCCCUGAUAGUGCUAAGGGGGCCUGGAAGUUUGGGCUGGGCAGAGCUCAACACAGCGUGGCAAAGUGGCUGUGGCUAGACUGCCUCUCUGGAUUCCUCGUCACUCAGCAGAGCAUCUCUGAGAGAAAUGCC [A50G G126A], 0.41. Regarding UACGUAGGUGGUUUUCCCCUGAUAGUGCUAAGGGGGCCUGGAAGUUUGGGCUGGGCAGAGCUCAACACAGCGUGGCAAAGUGGCUGUGGCUAGACUGCCUCUCUGGAUUCCUCGUCACUCAGCAGUGCAUCUCUGAGAGAAAUGCC [A50G G126U], the self-cleavage was 0.76.

As for UACGUAGGUGGUUUUCCCCUGAUAGUGCUAAGGGGGCCUGGAAGUUUGGGCUGGGCAGAGCUCAACACAGCGUGGCAAAGUGGCUGUGGCUAGACGGCCUCUCUGGAUUCCUCGUCACUCAGCAGGGCAUCUCUGAGAGAAAUGCC [A50G U96G], the self-cleavage came to 0.26. Consider UACGUAGGUGGUUUUCCCCUGAUAGUGCUAAGGGGGCCUGGAAGUUUGGGCUGGGCAGAGCUCAACACAGCGUGGCAAAGUGGCUGUGGCUAGACUGCCUCUCUGGAUUCCCCGUCACUCAGCAGGGCAUCUCUGAGAGAAAUGCC [A50G U112C], for which the self-cleavage is 0.73.

Turning to UACGUAGGUGGUUUUCCCCUGAUAGUGCUAAGGGGGCCUGGAAGUUUGGUCUGGGCAGAGCUCAACACAGCGUGGCAAAGUGGCUGUGGCUAGACUGCCUCUCUGGAUUCCUCGUCACUCAGCGGGGCAUCUCUGAGAGAAAUGCC [A50U A124G], the self-cleavage is 0.71. With UACGUAGGUGGUUUUCCCCUGAUAGUGCUAAGGGGGCCUGGAAGUUUGGUCUGGGCAGAGCUCAACACAGCGUGGCAAAGUGGCUGUGGCUAGACUGCCUCUCUGGAUUCCUCGUCACUCGGCAGGGCAUCUCUGAGAGAAAUGCC [A50U A121G], the self-cleavage was 1.09. For the variant UACGUAGGUGGUUUUCCCCUGAUAGUGCUAAGGGGGCCUGGAAGUUUGGUCUGGGCAGAGCUCAACACAGCGUGGCAAAGUGGCUGUGGCUAGACUGCCUCUCUGGAUUCCUCGUCACUCAGCAGGGCAUCUCUGAGAGGAAUGCC [A50U A140G], the self-cleavage was 1.05.

Take UACGUAGGUGGUUUUCCCCUGAUAGUGCUAAGGGGGCCUGGAAGUUUGGUCUGGGCAGAGCUCAACACAGCGUGGCAAAGUGGCUGUGGCUAGACUGCCUCUCUGGAUUCCUCGUCACUCAGCAGGGCUUCUCUGAGAGAAAUGCC [A50U A129U]: the self-cleavage came out at 1.12. As to UACGUAGGUGGUUUUCCCCUGAUAGUGCUAAGGGGGCCUGGAAGUUUGGUCUGGGCAGAGCUCAACACAGCGUGGCAAAGUGGCUGUGGCUAGACUGCCUCUCUGGAUUCCUCGUCACUCAGCAGGGCGUCUCUGAGAGAAAUGCC [A50U A129G], the self-cleavage was found to be 0.83.

For UACGUAGGUGGUUUUCCCCUGAUAGUGCUAAGGGGGCCUGGAAGUUUGGUCUGGGCGGAGCUCAACACAGCGUGGCAAAGUGGCUGUGGCUAGACUGCCUCUCUGGAUUCCUCGUCACUCAGCAGGGCAUCUCUGAGAGAAAUGCC [A50U A57G], the self-cleavage was 0.08.

Turning to UACGUAGGUGGUUUUCCCCUGAUAGUGCUAAGGGGGCCUGGAAGUUUGGUCUGGGCAGAGCUCAACACCGCGUGGCAAAGUGGCUGUGGCUAGACUGCCUCUCUGGAUUCCUCGUCACUCAGCAGGGCAUCUCUGAGAGAAAUGCC [A50U A69C], the self-cleavage was 0.04. For UACGUAGGUGGUUUUCCCCUGAUAGUGCUAAGGGGGCCUGGAAGUUUGGUCUGGGCAGAGCUCAACGCAGCGUGGCAAAGUGGCUGUGGCUAGACUGCCUCUCUGGAUUCCUCGUCACUCAGCAGGGCAUCUCUGAGAGAAAUGCC [A50U A67G], the self-cleavage was determined as 0.33. On to UACGUAGGUGGUUUUCCCCUGAUAGUGCUAAGGGGGCCUGGAAGUUUGGUCUGGGCAGAGCUCAACACAGCGUGGCAAAGUGGCUGUGGCUAGACUGCCUCUCUGGAUUCCUCGUCACUCAGCAGGGCAUCUCUGAGAGAUAUGCC [A50U A141U], for which the self-cleavage came out at 0.68.

As to UACGUAGGUGGUUUUCCCCUGAUAGUGCUAAGGGGGCCUGGAAGUUUGGUCUGGGCAGAGCUCAACACAGCGUGGCAGAGUGGCUGUGGCUAGACUGCCUCUCUGGAUUCCUCGUCACUCAGCAGGGCAUCUCUGAGAGAAAUGCC [A50U A78G], the self-cleavage was 0.83.

As for UACGUAGGUGGUUUUCCCCUGAUAGUGCUAAGGGGGCCUGGAAGUUUGGUCUGGGCAGUGCUCAACACAGCGUGGCAAAGUGGCUGUGGCUAGACUGCCUCUCUGGAUUCCUCGUCACUCAGCAGGGCAUCUCUGAGAGAAAUGCC [A50U A59U], the self-cleavage came out at 0.67. With UACGUAGGUGGUUUUCCCCUGAUAGUGCUAAGGGGGCCUGGAAGUUUGGGCUGGGCAGAGCUCAACACAGCGUGGCAAAGUGGCUGUGGCUAGACUGCCUCUCCGGAUUCCUCGUCACUCAGCAGGGCAUCUCUGAGAGAAAUGCC [A50G U104C], the self-cleavage turned out to be 1.08. Turning to UACGUAGGUGGUUUUCCCCUGAUAGUGCUAAGGGGGCCUGGAAGUUUGGGCUGGGCAGAGCUCAACACAGCGUGGCAAAGUGGCUGGGGCUAGACUGCCUCUCUGGAUUCCUCGUCACUCAGCAGGGCAUCUCUGAGAGAAAUGCC [A50G U87G], the self-cleavage came out at 0.11. As to UACGUAGGUGGUUUUCCCCUGAUAGUGCUAAGGGGGCCUGGAAGUUUGGGCUGGGCAGAGCUCAACACAGCGUGGCAAAGUGGCUGCGGCUAGACUGCCUCUCUGGAUUCCUCGUCACUCAGCAGGGCAUCUCUGAGAGAAAUGCC [A50G U87C], the self-cleavage came to 0.14. In the case of UACGUAGGUGGUUUUCCCCUGAUAGUGCUAAGGGGGCCUGGAAGUUUGGGCUGGGCAGAGCUCAACACAGCGUGGCAAAGUGGCUGAGGCUAGACUGCCUCUCUGGAUUCCUCGUCACUCAGCAGGGCAUCUCUGAGAGAAAUGCC [A50G U87A] it was 0.03; in that of UACGUAGGUGGUUUUCCCCUGAUAGUGCUAAGGGGGCCUGGAAGUUUGGGCUGGGCAGAGCUCAACACAGCGUGGCAAAGUGGCUGUGGCUAGACUGCCUCCCUGGAUUCCUCGUCACUCAGCAGGGCAUCUCUGAGAGAAAUGCC [A50G U102C], 1.51. In the case of UACGUAGGUGGUUUUCCCCUGAUAGUGCUAAGGGGGCCUGGAAGUUUGGGCUGGGCAGAGCUCAACACAGCGUGGCAAAGUGGCUGUGGCUAGACUGCCUCUCUGGAUUCCUCGUCACUCAGCAGGGCAUCUCAGAGAGAAAUGCC [A50G U134A] it was 0.68. In the case of UACGUAGGUGGUUUUCCCCUGAUAGUGCUAAGGGGGCCUGGAAGUUUGGGCUGGGCAGAGCUCAACACAGCGUGGCAAAGAGGCUGUGGCUAGACUGCCUCUCUGGAUUCCUCGUCACUCAGCAGGGCAUCUCUGAGAGAAAUGCC [A50G U81A], the self-cleavage came to 1.3. In the case of UACGUAGGUGGUUUUCCCCUGAUAGUGCUAAGGGGGCCUGGAAGUUUGGGCUGGGCAGAGCUCAACACAGCGUGGCAAAGCGGCUGUGGCUAGACUGCCUCUCUGGAUUCCUCGUCACUCAGCAGGGCAUCUCUGAGAGAAAUGCC [A50G U81C] it was 0.7. As to UACGUAGGUGGUUUUCCCCUGAUAGUGCUAAGGGGGCCUGGAAGUUUGGGCUGGGCAGAGCUCAACACAGCGUGGCAAAGUGGCUGUGGCUAGACUGCCUCUCUGGAUUCCUCGUCACUCAGCAGGACAUCUCUGAGAGAAAUGCC [A50G G127A], the self-cleavage is 0.68.

With UACGUAGGUGGUUUUCCCCUGAUAGUGCUAAGGGGGCCUGGAAGUUUGGGCUGGGCAGAGCUCAACACAGCGUGGCAAAGUGGCUGUGGCUAGACUGCCUCUCUGGAUUCCUCGUCACUCAGCAGGGCAUCCCUGAGAGAAAUGCC [A50G U132C], the self-cleavage amounted to 1.07. Regarding UACGUAGGUGGUUUUCCCCUGAUAGUGCUAAGGGGGCCUGGAAGUUUGGGCUGGGCAGAGCUCAACACAGCGGGGCAAAGUGGCUGUGGCUAGACUGCCUCUCUGGAUUCCUCGUCACUCAGCAGGGCAUCUCUGAGAGAAAUGCC [A50G U73G], the self-cleavage is 0.34.

As for UACGUAGGUGGUUUUCCCCUGAUAGUGCUAAGGGGGCCUGGAAGUUUGGGCUGGGCAGAGCUCAACACAGCGAGGCAAAGUGGCUGUGGCUAGACUGCCUCUCUGGAUUCCUCGUCACUCAGCAGGGCAUCUCUGAGAGAAAUGCC [A50G U73A], the self-cleavage is 0.78. With UACGUAGGUGGUUUUCCCCUGAUAGUGCUAAGGGGGCCUGGAAGUUUGGGCUGGGCAGAGCUCAACACAGCGCGGCAAAGUGGCUGUGGCUAGACUGCCUCUCUGGAUUCCUCGUCACUCAGCAGGGCAUCUCUGAGAGAAAUGCC [A50G U73C], the self-cleavage worked out at 1.31. Take UACGUAGGUGGUUUUCCCCUGAUAGUGCUAAGGGGGCCUGGAAGUUUGGGCGGGGCAGAGCUCAACACAGCGUGGCAAAGUGGCUGUGGCUAGACUGCCUCUCUGGAUUCCUCGUCACUCAGCAGGGCAUCUCUGAGAGAAAUGCC [A50G U52G]: the self-cleavage was 0.18. As for UACGUAGGUGGUUUUCCCCUGAUAGUGCUAAGGGGGCCUGGAAGUUUGGGCCGGGCAGAGCUCAACACAGCGUGGCAAAGUGGCUGUGGCUAGACUGCCUCUCUGGAUUCCUCGUCACUCAGCAGGGCAUCUCUGAGAGAAAUGCC [A50G U52C], the self-cleavage is 1.08. The figure for UACGUAGGUGGUUUUCCCCUGAUAGUGCUAAGGGGGCCUGGAAGUUUGGGCUGGGCAGAGCUCAACACAGCGUGGCAAAGUGGCUGUGGCUAGACUGCCUCUCUGGACUCCUCGUCACUCAGCAGGGCAUCUCUGAGAGAAAUGCC [A50G U108C] is 1.2; for UACGUAGGUGGUUUUCCCCUGAUAGUGCUAAGGGGGCCUGGAAGUUUGGGCUGGGCAGAGCUCAACACAGCGUGGCAAAGUGGCUGUGGCUAGACUGCCUCUCUGGAUUCCUCGUCACUCAGCAGGGCAACUCUGAGAGAAAUGCC [A50G U130A] it is 0.83. In the case of UACGUAGGUGGUUUUCCCCUGAUAGUGCUAAGGGGGCCUGGAAGUUUGGGCUGGGCAGAGCUCAACACAGCGUGGCAAAGUGGCUGUGGCUAGACUGCCUCUCUGGAUUCCUCGUCACACAGCAGGGCAUCUCUGAGAGAAAUGCC [A50G U119A] it was 0.96.

Source of the values: the RNAGym collection of RNA variant scans (doi:10.7554/elife.90254).
